Values quoted from earlier work as cited in paper PMC5605561.

Molecular target: B2R (Homo sapiens) (UniProt P30411)
Chain of UniProt P30411 (P30411 whole entry): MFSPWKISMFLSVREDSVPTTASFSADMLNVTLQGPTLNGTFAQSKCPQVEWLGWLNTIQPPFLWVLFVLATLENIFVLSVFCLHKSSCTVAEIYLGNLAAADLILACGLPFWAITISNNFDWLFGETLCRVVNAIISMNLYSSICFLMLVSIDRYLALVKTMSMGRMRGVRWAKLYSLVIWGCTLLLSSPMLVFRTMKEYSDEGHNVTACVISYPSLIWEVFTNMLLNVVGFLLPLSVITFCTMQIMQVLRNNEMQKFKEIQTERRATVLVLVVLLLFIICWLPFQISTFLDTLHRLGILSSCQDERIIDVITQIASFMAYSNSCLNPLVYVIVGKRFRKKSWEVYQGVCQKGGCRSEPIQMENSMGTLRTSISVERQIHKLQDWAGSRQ

Kd: 10 nM
Substance: bradykinin bradykinin (from UniProt P01042)
